According to patent US20140335539A1:

Legend:
[1] = target: p62(PB1)-p53; test: cell-based or functional assay
[2] = target: p62(PB1)-FKBP12; test: cell-based or functional assay

Row | IC50 of Nutlin-3, total luminance of fluorescent foci per cell (stable CHO-K1 line) [1] | IC50 of FK506 in the presence of 20 nM rapamycin, total fluorescence intensity of fluorescent foci per cell (stable HeLaS3 line) [2] | Substance
1 | 8.9 µM | – | AG-MDM2
2 | – | 0.68 µM | mTOR(FRB)-AG
